Values of other authors as cited in paper PMC10303925.

Columns and labels:
MLPH (Homo sapiens) = MLPH (Homo sapiens) (UniProt Q9BV36)
SLP2-A (Homo sapiens) = SLP2-A (Homo sapiens) (UniProt Q9HCH5)
Chain of UniProt Q9HCH5 (Q9HCH5 whole entry): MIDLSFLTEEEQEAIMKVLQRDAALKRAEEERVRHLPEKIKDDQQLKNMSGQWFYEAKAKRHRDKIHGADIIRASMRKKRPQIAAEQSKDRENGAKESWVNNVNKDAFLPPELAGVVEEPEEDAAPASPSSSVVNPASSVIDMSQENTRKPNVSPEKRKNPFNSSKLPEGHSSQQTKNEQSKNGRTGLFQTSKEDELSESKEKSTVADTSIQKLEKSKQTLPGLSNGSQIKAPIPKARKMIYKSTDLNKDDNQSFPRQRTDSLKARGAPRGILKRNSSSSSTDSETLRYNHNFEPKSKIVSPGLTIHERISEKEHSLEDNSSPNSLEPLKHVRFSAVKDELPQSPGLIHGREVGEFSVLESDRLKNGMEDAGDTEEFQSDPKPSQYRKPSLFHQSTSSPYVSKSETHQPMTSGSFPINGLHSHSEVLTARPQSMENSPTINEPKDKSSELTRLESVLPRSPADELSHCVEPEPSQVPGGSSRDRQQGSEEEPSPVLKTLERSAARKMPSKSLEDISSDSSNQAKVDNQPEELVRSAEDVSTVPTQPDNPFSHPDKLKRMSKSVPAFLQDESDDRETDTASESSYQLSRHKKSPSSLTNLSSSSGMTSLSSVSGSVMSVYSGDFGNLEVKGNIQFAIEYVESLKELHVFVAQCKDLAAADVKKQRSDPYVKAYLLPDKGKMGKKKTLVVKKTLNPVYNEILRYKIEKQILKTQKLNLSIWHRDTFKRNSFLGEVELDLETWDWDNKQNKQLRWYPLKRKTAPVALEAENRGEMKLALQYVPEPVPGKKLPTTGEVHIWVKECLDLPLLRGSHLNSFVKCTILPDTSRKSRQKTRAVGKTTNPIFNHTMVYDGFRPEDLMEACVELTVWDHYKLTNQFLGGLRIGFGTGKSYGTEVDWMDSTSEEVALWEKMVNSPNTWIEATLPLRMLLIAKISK

Chain of UniProt Q9BV36 (Q9BV36 whole entry): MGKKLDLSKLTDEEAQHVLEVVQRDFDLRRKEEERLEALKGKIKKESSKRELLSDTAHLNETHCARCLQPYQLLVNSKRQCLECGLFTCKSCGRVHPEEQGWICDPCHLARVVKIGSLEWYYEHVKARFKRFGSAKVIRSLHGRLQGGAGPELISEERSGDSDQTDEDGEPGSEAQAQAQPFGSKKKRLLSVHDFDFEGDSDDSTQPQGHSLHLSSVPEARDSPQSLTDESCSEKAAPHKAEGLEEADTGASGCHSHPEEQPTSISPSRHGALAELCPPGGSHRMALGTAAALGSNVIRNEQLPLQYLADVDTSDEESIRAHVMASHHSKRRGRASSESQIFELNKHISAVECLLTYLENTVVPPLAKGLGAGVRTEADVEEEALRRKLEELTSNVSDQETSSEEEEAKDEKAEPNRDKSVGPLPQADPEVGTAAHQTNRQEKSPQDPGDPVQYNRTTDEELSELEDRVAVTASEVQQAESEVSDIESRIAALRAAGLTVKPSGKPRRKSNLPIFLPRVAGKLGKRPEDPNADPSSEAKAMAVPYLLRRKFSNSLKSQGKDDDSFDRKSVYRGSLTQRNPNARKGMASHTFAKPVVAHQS

Substance: RAB27A (from UniProt P51159)
- Kd (MLPH (Homo sapiens)): 0.2 µM
- Kd (SLP2-A (Homo sapiens)): 0.02 µM
